The target of assay [1] is T1, S. cerevisiae TATA-box Binding Protein (yTBP) (S. cerevisiae, UniProt P13393).
T1 sequence: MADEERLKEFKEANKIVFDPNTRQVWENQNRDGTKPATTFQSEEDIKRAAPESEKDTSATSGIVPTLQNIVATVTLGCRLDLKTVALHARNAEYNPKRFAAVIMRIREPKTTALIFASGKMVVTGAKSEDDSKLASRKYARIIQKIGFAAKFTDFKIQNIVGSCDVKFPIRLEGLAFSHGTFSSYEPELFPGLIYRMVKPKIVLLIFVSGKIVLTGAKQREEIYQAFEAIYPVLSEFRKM
Nature of the assay: Far Western blot of the hydroxylapatite fraction probed with 35S-labelled yTBP. The method, then: (§1) The hydroxylapatite fraction was separated by SDS-PAGE and transferred to Immobilon-P membranes, and blocked in buffer T (0.2M KOAc) containing 0.01% (v/v) NP-40 and 4% BSA for 3 hr at room temperature followed by 2 hr at […]. ^35S-labeled yTBP and hTBP and its mutant derivatives (Ha, I. et al. Genes & Dev. 7, 1021–1032 (1993)) were synthesized in rabbit reticulocyte lysate and wheat germ extract, respectively, and were diluted in incubation buffer (buffer T (0.2) plus 0.01% (v/v) NP-40 and 0.5% BSA). […] The membrane was incubated with probe at […] for 14–18 min, twice in incubation buffer without BSA for 15 min, and rinsed in buffer T (0.2) lacking glycerol for 20 sec. The membrane was air dried, and exposed directly to film for 8–24 hr.
(§2) To identify this subunit, the yTAF complex was examined for TBP binding using an immobilized protein blotting ("Far Western") assay. The hydroxylapatite fraction was fractionated by SDS-PAGE, the polypeptides transferred to nitrocellulose, and the membrane probed with ^35S-labeled yTBP.

Assay [2] addresses human TATA-box Binding Protein (hTBP) (human, UniProt P20226). In words: Far Western blot of the hydroxylapatite fraction probed with 35S-labelled human TBP. The method, then:
as §1, §2

B1: yeast TAF-90 (yTAF90), the 90 kD polypeptide of the yTAF complex (other)
chain: MSQKQSTNQNQNGTHQPQPVKNQRTNNAAGANSGQQPQQQSQGQSQQQGRSNGPFSASDLNRIVLEYLNKKGYHRTEAMLRAESGRTLTPQNKQSPANTKTGKFPEQSSIPPNPGKTAKPISNPTNLSSKRDAEGGIVSSGRLEGLNAPENYIRAYSMLKNWVDSSLEIYKPELSYIMYPIFIYLFLNLVAKNPVYARRFFDRFSPDFKDFHGSEINRLFSVNSIDHIKENEVASAFQSHKYRITMSKTTLNLLLYFLNENESIGGSLIISVINQHLDPNIVESVTAREKLADGIKVLSDSENGNGKQNLEMNSVPVKLGPFPKDEEFVKEIETELKIKDDQEKQLNQQTAGDNYSGANNRTLLQEYKAMNNEKFKDNTGDDDKDKIKDKIAKDEEKKESELKVDGEKKDSNLSSPARDILPLPPKTALDLKLEIQKVKESRDAIKLDNLQLALPSVCMYTFQNTNKDMSCLDFSDDCRIAAAGFQDSYIKIWSLDGSSLNNPNIALNNNDKDEDPTCKTLVGHSGTVYSTSFSPDNKYLLSGSEDKTVRLWSMDTHTALVSYKGHNHPVWDVSFSPLGHYFATASHDQTARLWSCDHIYPLRIFAGHLNDVDCVSFHPNGCYVFTGSSDKTCRMWDVSTGDSVRLFLGHTAPVISIAVCPDGRWLSTGSEDGIINVWDIGTGKRLKQMRGHGKNAIYSLSYSKEGNVLISGGADHTVRVWDLKKATTEPSAEPDEPFIGYLGDVTASINQDIKEYGRRRTVIPTSDLVASFYTKKTPVFKVKFSRSNLALAGGAFRP
Take B1: in assay [1], the binding result is reported as “no binding”.

B2: yeast TAF-145 (yTAF145), the 145 kD polypeptide of the yTAF complex (other)
chain: MVKQQGSGKTNLANEDEAYEAIFGGEFGSLEIGSYIGGDEGANSKDYTEHLPDAVDFEDEDELADDDDDLPEESDANLHPAMMTMGAYDDVNENGAVLGIDSNSLNMQLPEINGDLSQQFILEDDGGTPATSNALFMGMDANEIHLATETGVLDGSGANEIGHSQLSIGGVNGNDMSINGGFIMEPDMSDGKHKKATKLDLINHEKYLLKKYFPDFEKGKILKWNKLIYRRSVPYHWHSEISRVKKPFMPLNLKFKVQQDDKRLFNSRTISYVAPIYQGKNNLLQSNSSASRRGLIHVSIDELFPIKEQQKKRKIIHDEKTISEDLLIATDDWDQEKIINQGTSSTATLADSSMTPNLKFSGGYKLKSLIEDVAEDWQWDEDMIIDAKLKESKHAELNMNDEKLLLMIEKTNNLAQQKQQLDSSNLILPLNETILQQKFNLSNDDKYQILKKTHQTKVRSTISNLNIQHSQPAINLQSPFYKVAVPRYQLRHFHRENFGSHIRPGTKIVFSKLKARKRKRDKGKDVKESFSTSQDLTIGDTAPVYLMEYSEQTPVALSKRGMANKLINYYRKANEQDTLRPKLPVGETHVLGVQDKSPFWNFGFVEPGHIVPTLYNNMIRAPVFKHDISGTDFLLTKSSGFGISNRFYLRNINHLFTVGQTFPVEEIPGPNSRKVTSMKATRLKMIIYRILNHNHSKAISIDPIAKHFPDQDYGQNRQKVKEFMKYQRDGPEKGLWRLKDDEKLLDNEAVKSLITPEQISQVESMSQGLQFQEDNEAYNFDSKLKSLEENLLPWNITKNFINSTQMRAMIQIHGVGDPTGCGEGFSFLKTSMKGGFVKSGSPSSNNNSSNKKGTNTHSYNVAQQQKAYDEEIAKTWYTHTKSLSISNPFEEMTNPDEINQTNKHVKTDRDDKKILKIVRKKRDENGIIQRQTIFIRDPRVIQGYIKIKEQDKEDVNKLLEEDTSKINNLEELEKQKKLLQLELANLEKSQQRRAARQNSKRNGGATRTENSVDNGSDLAGVTDGKAARNKGKNTTRRCATCGQIGHIRTNKSCPMYSSKDNPASPK
With B2, the binding result in assay [1] and in assay [2] was “binds” each time.

(Values after patent publication US5847077, “Fungal multisubunit protein complex critical for expression of fungal proteins” (University of Massachusetts Medical Center, dated 1998).)
